Measured values: patent US20260132208A1 (DOMAIN THERAPEUTICS, published 2026)
Values joined by “and” are separate entries in the source; they are usually repeats but may differ in a detail not shown here. Equal values may be shown once.

Legend:
human CCR8 [1] = target: T1, human CCR8 (human, UniProt P51685 1-355); assay: cell-based or functional assay
human CCR8 [2] = target: T1, human CCR8; assay: flow cytometry, HUT78 cells (endogenous CCR8)
Description: In human activated T cells model, prior to mAb incubation, cells were first incubated with 200 nM of hCCL1 (R&D Systems, Minneapolis, MN, USA) or buffer PBS (Invitrogen by Thermofisher Scientific, Illkirch-Graffenstaden, France) supplemented by 2% Fetal Bovine Serum (Invitrogen by Thermofisher Scientific, Illkirch-Graffenstaden, France) and 2 mM EDTA (Invitrogen by Thermofisher Scientific, Illkirch-Graffenstaden, France) during 1 hour at 4° C. To determine EC50 value, 8 concentrations of anti-CCR8 mAb were tested. Unbound antibodies were washed away with PBS (Invitrogen by Thermofisher Scientific, Illkirch-Graffenstaden, France) supplemented by 2% Fetal Bovine Serum (Invitrogen by Thermofisher Scientific, Illkirch-Graffenstaden, France) and 2 mM EDTA (Invitrogen by Thermofisher Scientific, Illkirch-Graffenstaden, France). Subsequently, cells are centrifuged (5 min at 400 g) and bound antibody is detected with F(ab′)2-Goat anti-Mouse IgG (H+L) Cross-Adsorbed Secondary Antibody, Alexa Fluor 488 (dilution 1/500) (Invitrogen by Thermofisher Scientific, Illkirch-Graffenstaden, France) or with F(ab′)₂-Goat anti-Human IgG Fc Secondary Antibody, PE (Invitrogen by Thermofisher Scientific, Illkirch-Graffenstaden, France) (dilution 1/1000) at 4° C. for 30 min. Detection reagent is washed away and cells are centrifuged (5 min at 400 g) and resuspended in 30 μL PBS. Bound detection antibody is quantified on a MacsQuant16 (Miltenyi, Gladbach, Germany) (B1 or B2 channel, 5000 events per acquisition). During the experiment, the respective isotype mAb controls (mouse IgG1, mouse IgG2a, mouse IgG2b, mouse IgG3 or human IgG1) (Biolegend, Amsterdam, The Netherlands) are included to exclude any unspecific binding events. EC50 values were determined via nonlinear fit “log (agonist) vs.response—Variable slope (four parameters)” function of Graphpad prism. EC50 values were not constantly determined in the same experiments.
Anti-CCR8 mAb cellular reactivity was also evaluated on native human CCR8 from HUT78 cell line by flow cytometry. In Table 4.3, Mean Fluorescence Intensity (Fold change to isotype control), the percentage of labelled cells and EC50 in nM of some anti-CCR8 antibodies are presented.

human CCR8 [3] = target: T1, human CCR8; assay: cell-based or functional assay; remark: listed apart in the source
human CCR8 [4] = target: T1, human CCR8; assay: cell-based or functional assay; remark: listed apart in the source
human CCR8 [5] = target: T1, human CCR8; assay: cell-based or functional assay; remark: listed apart in the source
[6] = target: T2, human CCR8 with a SNAP-tag at the N-terminus (human, UniProt P51685 1-355, SNAP-tag labelled covalently with Lumi4-Terbium); assay: HTRF Tag-lite, inhibition of hCCL1-AF647 binding to SNAP-hCCR8 on HEK-293 cells
T2 construct: also called hCCR8 SNAP-tag; CCR8 SNAP-tag
Description: The inhibition of CCL1 binding to hCCR8 was evaluated with the Tag-Lite® technology from Cisbio (Revvity). Human CCR8 is engineered with a SNAP-tag at the N-terminus of the GPCR. hCCR8 SNAP-tag is transiently transfected on HEK-293 cell line using FuGene® (Promega, Madison, WI, USA). 48 hours after transfection, cells are labeled with the substrate Lumi4-Terbium® (Cisbio, Codolet, France) which covalently reacts with the SNAP-tag, for 1 h at 37° C. Thawed or freshly labeled cells are plated in a 384 low volume white plate (GREINER Bio-One, Courtaboeuf, France) (10000 cells/well/10 μl). […] The Kd was previously obtained in a saturation binding assay on the same cells. […] The plate is next incubated at 21° C. for 2 h. Detection of HTRF signal is performed on the multiplate reader EnVision (PerkinElmer, Waltham, MA, USA). The HTRF (665/620) ratio is calculated by EnVision software, the data exported are considered as the total binding. The specific binding is calculated then by subtracting the non-specific signal from the total binding. The Ki and IC₅₀ are calculated using the “One site-Fit Ki” and “One site-FitlogIC50” from GraphPad Prism 9 (Graphpad Software, San Diego, CA, USA), respectively.

human CCR8 [7] = target: T1, human CCR8; assay: cell-based or functional assay; remark: listed apart in the source
pm2 = target: T3, pm2 (sulfated tyrosine(s) among Y15, Y16, Y17; which ones is not told (the underlining of Table 1 is lost in the text)); assay: ELISA on coated peptide [cont.]
T3 construct: also called sulfated CCR8 N-terminal peptide pm2
In short: (§1)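 Steps: peptide coating (500 ng/ml, carbonate/bicarbonate); anti-CCR8 mAb added at 1 μg/mL and diluted 1/10; room-temperature incubation of 90 min; washes to remove unbound antibody; 15 min TMB; OD measurement.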

pm5 = target: T4, pm5 (Y15 and Y17 sulfated; Y16 not sulfated); assay: ELISA on coated peptide [cont.]
T4 construct: also called sulfated CCR8 N-terminal peptide pm5
In short: as §1

pm8 = target: T5, pm8 (Y15, Y16 and Y17 sulfated); assay: ELISA on coated peptide [cont.]
T5 construct: also called sulfated CCR8 N-terminal peptide pm8
In short: as §1

pm6 = target: T6, pm6 (Y16 and Y17 sulfated; Y15 not sulfated); assay: ELISA on coated peptide [cont.]
T6 construct: also called sulfated CCR8 N-terminal peptide pm6
In short: as §1

pwt1 = target: T7, pwt1 (none (unmodified peptide)); assay: ELISA on coated peptide [cont.]
T7 construct: also called unmodified CCR8 N-terminal peptide
In short: as §1

pm1 = target: T8, pm1 (sulfated tyrosine(s) among Y15, Y16, Y17; which ones is not told (the underlining of Table 1 is lost in the text)); assay: ELISA on coated peptide [cont.]
T8 construct: also called sulfated CCR8 N-terminal peptide pm1
In short: as §1

pm3 = target: T9, pm3 (Y17 sulfated; Y15 and Y16 not sulfated); assay: ELISA on coated peptide [cont.]
T9 construct: also called sulfated CCR8 N-terminal peptide pm3
In short: as §1

pm4 = target: T10, pm4 (sulfated tyrosine(s) among Y15, Y16, Y17; which ones is not told (the underlining of Table 1 is lost in the text)); assay: ELISA on coated peptide [cont.]
T10 construct: also called sulfated CCR8 N-terminal peptide pm4
In short: as §1

[8] = target: T2, human CCR8 with a SNAP-tag at the …; assay: cell-based or functional assay
human CCR8 [9] = target: T1, human CCR8; assay: cell-based or functional assay; remark: listed apart in the source

T6 sequence (peptide, as listed by the source): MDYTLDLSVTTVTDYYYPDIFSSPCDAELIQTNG
T3 sequence (peptide, as listed by the source): as above
T7 sequence (peptide, as listed by the source): as above
T5 sequence (peptide, as listed by the source): as above
T4 sequence (peptide, as listed by the source): as above
T10 sequence (peptide, as listed by the source): as above
T8 sequence (peptide, as listed by the source): as above
T9 sequence (peptide, as listed by the source): as above

% of labelled cells (human CCR8 [2]) [%]	EC50 (human CCR8 [2]) [nM]	ADCP % max phagocytosis, HUT78 targets, MDM donor 9 (human CCR8 [3]) [%]	ADCC % max lysis, HUT78 targets, NK donor 3 (human CCR8 [4]) [%]	ADCC % max lysis, HUT78 targets, NK donor 4 (human CCR8 [4]) [%]	ADCC EC50, HUT78 targets, NK donor 3 (human CCR8 [4]) [nM]	ADCC EC50, HUT78 targets, NK donor 4 (human CCR8 [4]) [nM]	extrapolated top plateau of hCCL1 curve with 5 µg/mL mAb, protocol #3 (human CCR8 [5])	IC50 [6] [µg/mL]	Ki [6] [µg/mL]	IC50 of CCL1-induced hCCR8 Gi2 signaling (BRET, HEK-293) (human CCR8 [7])	binding result (pm2)	binding result (pm5)	binding result (pm8)	binding result (pm6)	binding result (pwt1)	binding result (pm1)	binding result (pm3)	binding result (pm4)	% hCCR8 internalization with CCL1 300 nM, mAb 1 µg/ml (HTRF) [8] [%]	Binder	also measured
34	0.4	8.29	–	–	–	–	–	–	–	–	–	–	–	–	–	–	–	–	–	anti-CCR8 mAb 1-26 (antibody, human IgG1, kappa, afucosylated Fc glycan, Afucosylated humanized mAb; same chains as 1-21) heavy: not shown light: DIVMTQAAPSLSVTPGESASISCTSSKSLLHSNGNTYLYWFLQKPGQSPQLLIYRMSNLASGVPDRFSGSGSGTAFTLKISRVEAEDVGVYYCMQHREYPFTFGSGTKLEIKRTVAAPSVFIFPPSDEQLKSGTASVVCLLNNFYPREAKVQWKVDNALQSGNSQESVTEQDSKDSTYSLSSTLTLSKADYEKHKVYACEVTHQGLSSPVTKSFNRGEC	ADCC % max lysis, HUT78 targets, NK donor 1 (human CCR8 [1]): 22%; ADCC % max lysis, HUT78 targets, NK donor 2 (human CCR8 [1]): 20%; ADCC EC50, HUT78 targets, NK donor 1 (human CCR8 [1]): 0.00224 nM; ADCC EC50, HUT78 targets, NK donor 2 (human CCR8 [1]): 0.00216 nM; MFI fold change to isotype ctrl (human CCR8 [2]): 2.5 fold
96	–	–	15	16	0.505	0.573	569000 % of hCCL1 (100 nM)	0.04	0.02	0.022 µg/mL and 0.148 nM	binds	binds	binds	binds	binds	binds	binds	binds	44	anti-CCR8 mAb 1-23 (antibody, human IgG1, kappa, V domains shown, Humanized mAb, human IgG1 / kappa) VH: QVQLVQSGPEVVKPGASVKVSCKTSGYTFTEYTIHWVRQAPGQSLEWVGGINPNNGNTRYDQKFQGRVTITRDKSASTAYMELRSLTSEDTAVYYCARVARSSGSGPYAMDYWGQGTTVTVSS VL: DVVMTQSPLSLPVTLGDQASISCRCSQSLLHTNGDTYLHWYLQRPGQSPRLLIYKVSNRFSGVPDRFSGSGSGTDFTLKISRVEAEDVGVYFCSQSTHVPYTFGGGTKVEIKR	% hCCR8 internalization with CCL1 300 nM, mAb 10 µg/ml (HTRF) [8]: 29%; residual hCCL1 (100 nM) Gi2 response, protocol #2, mAb 0.08 µg/mL (human CCR8 [9]): 67%; residual hCCL1 (100 nM) Gi2 response, protocol #2, mAb 0.4 µg/mL (human CCR8 [9]): 55%; residual hCCL1 (100 nM) Gi2 response, protocol #2, mAb 10 µg/mL (human CCR8 [9]): 32%; residual hCCL1 (100 nM) Gi2 response, protocol #3, mAb 0.05 µg/mL (human CCR8 [9]): 86%; residual hCCL1 (100 nM) Gi2 response, protocol #3, mAb 0.5 µg/mL (human CCR8 [9]): 60%; residual hCCL1 (100 nM) Gi2 response, protocol #3, mAb 5 µg/mL (human CCR8 [9]): 42%
88	0.2	–	–	–	–	–	366000 % of hCCL1 (100 nM)	0.04	0.02	0.034 µg/mL and 0.224 nM	binds	binds	binds	binds	binds	binds	binds	binds	44	anti-CCR8 mAb 1-24 (antibody, human IgG1, kappa, V domains shown, Humanized mAb, human IgG1 / kappa) VH: QVQLQQSGPEVVKPGASVKVSCKTSGYTFTEYTIHWVRQSHGQSLEWVGGINPNNGNTRYDQKFKGRVTITIDKSSSTAYMELRSLTSEDTAVYYCARVARSSGSGPYAMDYWGQGTTVTVSS VL: DVVMTQSPLSLPVTLGDQASISCRCSQSLLHTNGDTYLHWYLQRPGQSPRLLIYKVSNRFSGVPDRFSGSGSGTDFTLKISRVEAEDVGVYFCSQSTHVPYTFGGGTKVEIKR	% hCCR8 internalization with CCL1 300 nM, mAb 10 µg/ml (HTRF) [8]: 36%; residual hCCL1 (100 nM) Gi2 response, protocol #2, mAb 0.08 µg/mL (human CCR8 [9]): 77%; residual hCCL1 (100 nM) Gi2 response, protocol #2, mAb 0.4 µg/mL (human CCR8 [9]): 66%; residual hCCL1 (100 nM) Gi2 response, protocol #2, mAb 10 µg/mL (human CCR8 [9]): 41%; residual hCCL1 (100 nM) Gi2 response, protocol #3, mAb 0.05 µg/mL (human CCR8 [9]): 73%; residual hCCL1 (100 nM) Gi2 response, protocol #3, mAb 0.5 µg/mL (human CCR8 [9]): 52%; residual hCCL1 (100 nM) Gi2 response, protocol #3, mAb 5 µg/mL (human CCR8 [9]): 37%
–	–	7.27	25	28	0.218	0.053	–	–	–	–	–	–	–	–	–	–	–	–	–	anti-CCR8 mAb 1-34 (antibody, human IgG1, kappa) heavy: not shown light: DVVMTQTPLSLPVSLGDQASISCRCTQSLLHTNGDTYLHWYLQKPGQSPKLLIYKVSNRFSGVPDRFSGSGSGTDFTLKISRVEAEDLGVYFCSQSTHVPYTFGGGTKLEIKRTVAAPSVFIFPPSDEQLKSGTASVVCLLNNFYPREAKVQWKVDNALQSGNSQESVTEQDSKDSTYSLSSTLTLSKADYEKHKVYACEVTHQGLSSPVTKSFNRGEC	–
